Source: the domain aggregation screens of Martell et al. (2025)

Test: soluble fraction after stress (log2 fold change); higher = more stays soluble; pooled small domains, quantitative proteomics
Conditions: stress: 50 degC
Procedure, shortened: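 The measure of aggregation propensity here is the base-two logarithm of the fold change in the soluble amount of each protein after stress. A higher value means more of that protein stays in solution. Stress was applied at 50°C to pooled libraries of small protein domains, read out by high-throughput quantitative proteomics.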

| Sequence | soluble fraction (log2) |
| --- | --- |
| HMNDQLIYSDFIRQVQDGQITEVTISGLNIAGTRSDGSVFNTLRPYIEDPKLIDDLLSHNVRIQGAE | -0.2 |
| HMTAMQYVTIKDIADALGISKSSVSRALAGDVHNVSAQTIERVRAKALEMGYLRNNAAVNLR | -0.0718 |
| HMEMDPKELGRQVLAKRKEKGWSQEQLGKMAEISRNYVSQIERGEADSISIKIINRLAIALGVSPSDLGE | 0.0486 |
| HMLAVSVDKDGKVYIQDSETAVDAVTAKLRAISGNNSEIRIFVRGDADVNYGRIMEIMGVINAAGFRKVAL | -0.467 |
| HMTGRVKWYDATKGFGFVTSDEGGDVFLPKGALPAGVADLKTGQRIEFGVVDSRKGAQALGVK | 0.337 |
| HMDTRQFWEQWVADEIRTFEHKDRKQLFGWFEGNKPKLGQMKKLGYGDLLTKVQTSWDEIYQQKE | 0.124 |
| HMQMSERENTILLTKRYIERGEYERAMNLLDSLLIKNALDEEALAMIDEIIALKAGASLQDFPRY | -0.684 |
| HMEAYSAEAVRFRIKAMIESETVDDVMSDDKIVERLLADGVDIARRTVAKYREAMNIPSSVKRRRKLKGM | -1.53 |
| HMDSVEYRVITGDDVNFRKGPSTDYASLGKLNKGYKVEYISETNSWSKVKYNGQTGYVYSKYVAQT | 0.0362 |
| HMQEHAHLWRLMEDNRSFKADYIAFENGIVLLQNLSSGKISQYPITDFSIEDQLLILKRHELTAHINAN | -3.09 |
| HMTGGLTQEQISQLRMLTPQQIEQLRQLQPQQVEMLRQLRPEQVMLLTQLEPQQIMAFMRLEPSVIMQL | -0.215 |
| HMTSTSVKYVNSSSGLNVRKGPSTSYDKVTTLVNGTKVTVISTNNGWSKITSGSITGYVSSQYLSSSS | -0.147 |
| HMLSRNEWLVMEALWERPSTLMELVRQLGQEPPGWAKSTTATMVRRMEEKGLIRHEAGSKARVYHP | -0.885 |
| HMEPDEYTVRQAFMKFDVGGEGRVPRDKLKALLETLGLELSAQQVRESEEQLDPEGTGFTSYGDFLMWWN | -1.12 |
| HMELEDTYTKNLDASLARLDEYQASKGLTDEQVDEVINSLIADAENIIMGVFTPELIDSKLKAMNYDQDV | 0.156 |
| HMTRLDLQNAFRVLPPEIQPAAVLFFLQERKQREIAKILGIGLPLVKYRIRKARELLAQFLRKEA | -0.241 |
| HMKMDGESQRLLSLIKEQGGSLPIGDKSSPEAIYRLTQMSKKTFKMALGSLYKAKQVVLSPTEVRL | -0.69 |
| HMEVDDEAIYQGHEPSIRLHRLLKDVGYNSALLPSVVTQIFKDFPGIELAKALPIAMQLLNED | -0.403 |
| HMVVKSPLEMAFDKFREMRKKIRKPMTERAEELIWKELSKLAGEDSDLKIEILEQSIRNGWQDVYAVK | -0.265 |
| HMYEGLPVTLIIDGRVIEANLAKANRDMAWLERELANSGVRSHHDVFFATLDSRGQLYYQVKN | -0.143 |
| HMPRRSYLDARKKLLGMLNSPDFNSGDQIPAERELSEVLGISRVTVRKIITELIDEGVLERRGNQGTWLVD | -0.378 |
| HMSIAKIIGDRIRAYRNQKGWSQEYLAEKADVHHTYIGQLERGEKNATIESISKIAGALGVSLSRLFEN | -0.0998 |
| HMGDAPLITVDKRTIKVNGAKAQIQVYDTTGRLVKNVSPAGKLTLIEMAKPGIFIVHTQSMSFKVVL | -0.448 |

| Sequence | soluble fraction (log2) |
| --- | --- |
| HMSVDIWTGAQTGNIEAVKQHLADGVDVNSKSDIGRTALDVAIAFKQPLITDLLRKHGGKTRDELKAAE | 0.545 |
| HMTQRRLQSELDSIPGVGAGTRTKLLRTLGSVDAVLRASEAELLAAGANRRQVASIQAHAAAVER | -0.0642 |
| HMQADTATITGNGVNMRSGPGTNYQIIDTIPKGTVAEVLSQQDGWVKIYSARISGWVSASYVEIKQT | -0.356 |
| HMVDTSDLPAIVEKVFADNPEQVNDILNGKDRVKGFLVGQIMKATRGQAPPDEVNKLIDATLEKMKAA | 0.0819 |
| HMHREITGSLAERNGRYTAILNLYDEDGKRRQKSIALGIPVKGNKRKAQAQLEELKRAYSLGLPQ | -0.115 |
| HMSHPNAPLTPEGRRRLAVLIVEDGWTIRRAAERFQVSPATASKWARRYRAGESLTDRSSRP | -1.58 |
| HMNEDYSSMVGKTGFALTILRPAGKIMIEEEVFDAVAINGYISKGQEVEVVRYENAQLYVKVK | -0.386 |
| HMPTPASGSSGYINATNVNFRTGPATSYKSISKLAKNTAVTILGTSGNWYKVTVGSLGKNGYVFATYVTVS | -0.556 |
| HMNTPALRQRTQDVPALLIHFAKYFATKGQTPISFAPDFLEALKDYPWPGNVRELRNLVESMVV | -0.0746 |
| HMISKWGELVDLAVQLDIIQKSGSWFSMGDERIGQGANSVKDYLIANPDIAEKVEAEVRENLWKLN | -0.129 |
| HMTVKRNLVQEILRLKFRHPENFMPNRAFYQEVGINQMRWWDIFYGRKNINQEEYIALSKYF | -0.237 |
| HMTITPEVIVNHFKNLDLFFTKNGNYYEFKKKGTENILFKYGIYKQKPNIFVKIQRYPISSLSDLERIPI | -0.844 |
| HMAAIPEQVSEEVVSAVKASGIDPGKVTKEQWTSLLKGRRTALGSSSGKLFMLSKAPVGYTLKAVNA | 0.333 |
| HMENSMDTDWDVSGVDPSQYRLLFSTLGAIAGVKDVGLNPDGLKIIHTPEALPAIKQAFDANNLKLKMRTN | 0.163 |
| HMGAAFITSSKDNAINIRQSANTDSKVIETVTNGQILESNEKSGEWHKVTYYDNDIKKSFTGYVHEGQLK | 0.125 |
| HMKMTIEDLITQAKESNAAENYYEAFQLYSKAIDVLPNDPDLYSARGVVLFHLDRKEDSLIDMNKSVD | -0.2 |
| HMSFMFEISVIRSQYNMQDPESKTGFYNAIAKKLLEFPEKLERDNYTEAVAREYMIPETDLKNLVNSMGG | -2.17 |
| HMFPDLTGDELRIVDLLNTANDLQVNIITAKTNLPISRVTSLLFQLEMKGVVKPLAGGMYHLLG | -1.31 |
| HMDISKTLGKNPLLIIDNIEYRGKTLDEITAMTGVKRFENIDIYGSEEAMKTYGEKAKDGVIIAYTT | 0.0561 |
| HMGPVPLASAADMEKFYSHLQQVLDEVDFKDRTGSGHLMARLRRLFQRTVLDQNEINILRGILMAVQGRR | -2.85 |
| HMRRKNQVQSSYQKRENGTYTVRFFLSDDMGSIMDLQLMATREDMARALRERFLKDPEKIYGQIMQMLLR | -0.255 |
| HMKSKYLIKIEGDFDEKDLYKYLINVSIVNHTKNNGFTEVEFYNDNYSLQQNFLKSMLNDGIIITEFKKVE | -0.115 |
| HMKEIGGGPASKFIYYLIKTKHPIEQGDLIGITHLPRRTVQSAIEDLKNQGFIIERNSLDDSRRKVYYPVK | 0.000762 |

| Sequence | soluble fraction (log2) |
| --- | --- |
| HMKEGGREEMSEIVERYGDERALMANITSVQNLMNNMKWTLDQALDALGIKGKERTLITQQLQ | -0.147 |
| HMAITYETKVISGVNLRSAPSTSASVYQLIPKGENIHVVQKVNDYWLKVQTKDGKTGYISASSKYTNYIG | -0.773 |
| HMIVVMARETSTDDLEAIRERIESRGMVAQINLGVERTVIGVMGSIPPDFKDEMELMNGVVEVVMISK | -0.408 |
| HMQQKNWIVRDGDGKIYGPFTTEQVLVQIDRGYFVGGEEVALYPGGRWIAISGAPEFYDRLLDALAMEG | -0.402 |
| HMATARPPPPPESRVEVLFDGRWYAGTVVGGALDEHRATVFFDADRLSQVINFAETGIRVLGT | -0.0673 |
| HMVAFYATPKERGIYDDAETYREGDIVSIADGSRWIYVNPTATAGNDPADGSVYWERMSGAATGP | 0.0147 |
| HMSTTYLNEGDRITLTDSVNIRTSMSETADRVGLAYQGDVVTVIMSYAEGWTKVSWNGQTGYAKTEYL | -0.617 |
| HMPVVKIPFILTEGPSSITKVIEIDADEILELKDVFQEDDKLWSINQIEMNDGRYVKHSDASLIVRASALR | 0.066 |
| HMKPGWEDIFRMNQIQLEDAVRTVNRDDTLAPTKKAYLIQNLLASRWIVGNQLQAQKDKTTE | -0.0813 |
| HMNREEFLSQLERLLYDIPAQEREEALEYYNGYFDDAGKEKEAEVIQELGSPGKVAAIIKADLSG | -0.0285 |
| HMEMNPLDIQNKAAELAQQWLQLPVGERQKQMAAVRTSNPNLHAMAKQKMEEMRSQAESQGRQSLSQP | 0.0359 |
| HMQEIKPEPISDGRVWKEGMWATTPLGIEGQLLSDPDEKGMVQLGYGNMRININIQDLDPSR | -0.0705 |
| HMNTRWDDAAQTWLRKVIEQQPVLVQISAAKRLRDQAEQRAREAGEEVVTEQHVKRAGLELGFGEP | 0.0799 |
| HMVTFDEISQSLVRDVAARRSLSVQTLHAMVDRYNAGSSINAVANQYGIDRLKLREILIELGVHVAT | 0.159 |
| HMPQTNIYPNPAFDKLFVSNLENETNFKIMDLFGRTIINSKTKGEISISELKSGIYIIEINNFRQKFVK | -0.839 |
| HMSFNTNENKNLLWELMNKHNLFKDIDNQHYQEVQKLFEEEIVFISNNNKSLDLVEQNKKFLSSIITKLNK | -1.41 |
| HMKTGHLPVTVIIDGRIISDNLYKTGLSNNWLADQLRKNSIKSSEDVFFAYLNPERKFIYQLRSNS | -1.01 |
| HMKTYEILFDILSRESDYISGEKLAQELGISRTSIWKAIQHLEKEGVHIESVKNKGYKLLSGDLLIAEKI | -1.14 |
| HMAPETALQILEQIQINPKVTMTDLANLTGYSRRWVAQTMKQLQELNVIKRVGSTKTGYWEIIA | -0.138 |
| HMKLIRIPFILTEGPDSQKITIDVDGDEEFRLGDVFEEDDKLWTVNQILVSGERKAKRSMAGEVMRISALR | -1.26 |
| HMGIFDIIQEINRQGVTVLLIEQNANMALKIADVGYVLETGRISLTGSGRELLANEAVKKAYL | -0.0514 |
| HMDHAHWEEHEVKLLLTLAIQEKEKFNWNQFGLTREGWRNIYPHFPQYSRKQINNKFDFLKQKYRAWKDS | -1.84 |
| HMSLNHDIWVQELKEKRSGYGISQSRLAIAAGMTRQYLSDIETGKVLPSAERKAAITEALERFNPD | -0.368 |
